Measurements reported in the supplement of paper PMC10126150.
± gives the standard deviation of the averaged measurements.

Tested on: ATP
Experiment: switch fluorescence ratio, 500 uM ATP over buffer (Cy3 cluster intensity, sum of 5 cycles each) (fold (ratio)); higher = stronger signal-on switching upon ATP binding; sequences stand for … in TCGTCGGCAGCGTCAGATGTGTATAAGAGACAGTTTTTTTTTTTTTTTTTTTTTTTTT…TC
Conditions: aptamer strand: ATP DNA aptamer (quencher-CACCTGGGGGAGTATTGCGGAGGAAGG + anchor), 100 nM annealed; ATP concentration: 500 uM
How it was run: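 Per cluster, summed Cy3 intensity from the target cycles was divided by that from the buffer cycles to give the fluorescence ratio, then averaged per switch-domain sequence. Clusters outside 100-1000 RFU were excluded. The Cy3-labelled switching-strand clusters, on a modified Illumina MiSeq flow-cell, were annealed to 100 nM quencher-labelled ATP aptamer and imaged in selection buffer, then after 15 min with 500 uM ATP at 22 °C, for five cycles with NaOH stripping and re-annealing between them.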
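Note: ATP exposure 15 min at 22 °C before imaging.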

Sequence | switch fluorescence ratio
TTTAGACGGG | 0.965 ± 0.028
ACAAGGGGCA | 1.01 ± 0.028
AGGTGGGGAC | 1.01 ± 0.014
TTCTCGCCAA | 1.08 ± 0.022
TTTGAGTGGC | 0.969 ± 0.041
AACGAATAAA | 0.994 ± 0.025
AAGTGTATGC | 1.01 ± 0.038
CGAGGGGACG | 1 ± 0.013
TATGTAGCCG | 1.03 ± 0.098
TCAGACTTTG | 0.978 ± 0.022
GATGAACGTC | 1.11 ± 0.19
GAGGATTATT | 0.9694 ± 0.0059
TCCCCGCGCT | 1.25 ± 0.37
GTGAATTTGT | 1.09 ± 0.15
TATTATCTTT | 1.01 ± 0.024
TAGCATGGGG | 0.991 ± 0.016
AGTGTTGCAG | 0.98 ± 0.048
TTTTTGTTCT | 0.996 ± 0.024
AATTTAGGGA | 1 ± 0.0089
AATTAGGTGA | 1.04 ± 0.031
GAGTTGGGGT | 0.986 ± 0.018
TTGTTACGGT | 0.981 ± 0.041
GAGAAAGGTT | 1.09 ± 0.2
GATTGAAAGA | 0.986 ± 0.026
ATAACGCGGT | 0.9967 ± 0.0047

Sequence | switch fluorescence ratio
TTGATCTTGG | 1.04 ± 0.013
ATCGGCCATG | 0.988 ± 0.011
TATAACATAT | 1.03 ± 0.041
TTGGCCGCGA | 2.1 ± 0.066
ACGGTTTTGC | 0.997 ± 0.013
TATACTGTTG | 0.976 ± 0.021
CAGTTTTTTA | 0.983 ± 0.016
TACCTATGTT | 0.979 ± 0.011
GGTTTCTGCT | 1.02 ± 0.03
TTAGCAGCTG | 1 ± 0.04
AATCGTATTC | 0.972 ± 0.011
GCTTGATGAA | 1.034 ± 0.0013
CTACAAGTTA | 1.048 ± 0.0027
TTATCATATA | 1.06 ± 0.057
AAATGTTTGC | 1.01 ± 0.018
GGGACTCCAA | 1.24 ± 0.35
TTATCGAATT | 1 ± 0.025
AAGTTTGTTA | 0.995 ± 0.042
TACTAAGTAT | 0.996 ± 0.069
GGAAGGGGGG | 1.01 ± 0.024
AGGCGGGTGG | 1.03 ± 0.019
TTTCCCGCTC | 1.93 ± 0.33
CGTGGAGGGG | 1.04 ± 0.013
TGGAGGGTGG | 1.01 ± 0.019
AACGGGATAT | 1.09 ± 0.0021

Sequence | switch fluorescence ratio
ATCCGTATGT | 1.05 ± 0.014
TAGTTGGTGG | 0.954 ± 0.046
TGTTTAAGGG | 1 ± 0.021
ATATATGCTC | 1.01 ± 0.016
GCAATTCCCG | 2.17 ± 0.049
GCTGAGGCAA | 1.06 ± 0.015
TTTTCTACGG | 0.989 ± 0.02
AATTGTTTTT | 1 ± 0.021
CGTTTGGAAC | 1.01 ± 0.055
CAGATTCTGT | 0.973 ± 0.023
ATCCGAACGG | 1.03 ± 0.048
TAAAGATAGC | 1.02 ± 0.064
AATTGATTTA | 1 ± 0.086
TGAGAATTTA | 0.9935 ± 0.0019
CAACTATTGC | 1.04 ± 0.036
ACCGGGGTTT | 1 ± 0.051
ATTACCGGGG | 1.05 ± 0.035
GGGTAAAGGA | 0.985 ± 0.028
GGGGGGTCGT | 1 ± 0.05
TGACTACCAT | 1.07 ± 0.08
TCTAGGAGGT | 0.987 ± 0.028
TGTCGGTCGG | 0.984 ± 0.015
CGAAGGTTTG | 0.945 ± 0.058
TTGTGTTATC | 1.01 ± 0.012
TGTTTGGGCC | 1.03 ± 0.011

Sequence | switch fluorescence ratio
AGGGCTGCAT | 0.9874 ± 0.0035
TTTGAGAGCT | 0.977 ± 0.014
GCGGTTCTC | 1.03 ± 0.029
GGATCTAGGG | 0.981 ± 0.018
ACTAACGGGG | 1.35 ± 0.084
AGGGGTATAG | 0.995 ± 0.068
TGCTTTGGTT | 1.01 ± 0.055
ACGGTTCTTT | 1.01 ± 0.03
AGCTACTTTT | 1.022 ± 0.0035
TTCTATCGTT | 1.01 ± 0.031
TATATTAAGA | 1.01 ± 0.016
TAAAAAAATA | 0.971 ± 0.0079
TGGGGTTGCG | 0.981 ± 0.032
TGGTTTTCGT | 1.01 ± 0.028
AGGGTTAGGA | 1.02 ± 0.033
AGGGTTGGTG | 1.04 ± 0.077
TTCGGACCCG | 0.976 ± 0.01
TTTATCCTTT | 0.98 ± 0.025
TATATATATG | 0.955 ± 0.031
ATGGCGGCGG | 1.01 ± 0.014
TGTAGGGGTT | 1 ± 0.044
CATGTTACGG | 1.055 ± 0.0065
CTAAGGCCTG | 0.97 ± 0.072
CGGTTATGGC | 0.978 ± 0.019
ATAAAACAAG | 0.99 ± 0.027

Sequence | switch fluorescence ratio
TTAGAGAAGT | 0.987 ± 0.019
TAGGCACCTG | 1.0679 ± 0.00092
GGCAATCGAA | 1.1145 ± 0.00045
GATCTACGGC | 1.07 ± 0.024
TTATCAACAC | 1.09 ± 0.13
TGCCGGGGCT | 0.967 ± 0.037
AAACAGTAGA | 1.07 ± 0.042
GACGGGGGGA | 1.03 ± 0.077
AGTCGTTGGG | 0.984 ± 0.015
AAGCTTTATG | 1.003 ± 0.0052
AAGACACGC | 1.04 ± 0.042
AACGGAACTA | 1.15 ± 0.019
AGTTCTATTT | 1.01 ± 0.021
AATTATTCGA | 1.02 ± 0.011
CGGGCGGGGG | 1.06 ± 0.12
TGGGATGGGC | 1.05 ± 0.14
GCGGGGGGAC | 1.01 ± 0.015
CGGCGAGAAC | 1.045 ± 0.0023
AGGGTTGAGA | 0.985 ± 0.033
ATACTTAAGG | 1.016 ± 0.0013
GGGGGTTACC | 0.988 ± 0.02
GAGAGCGGGG | 0.968 ± 0.033
GAAGTTTGAT | 0.9867 ± 0.0011
ACCGGATATA | 1.006 ± 0.0081
TTGTTCTTAA | 1.05 ± 0.11

Sequence | switch fluorescence ratio
ATAGGTCCCG | 1 ± 0.017
TTTATAGTGT | 0.9894 ± 0.0097
TATATAGGTA | 1.01 ± 0.043
GCTTATATTT | 1.045 ± 0.0055
GGAAGTGTGG | 1 ± 0.05
CATTATTATT | 0.9975 ± 0.0058
ACGTTTTTAG | 1 ± 0.013
AGAGCACAGG | 1.09 ± 0.018
ATTATATTGC | 1.01 ± 0.026
GTTGCATGGG | 0.963 ± 0.012
CTTTAACGAG | 0.9976 ± 0.0043
AATGGATGGG | 0.999 ± 0.011
TTGGAGCACT | 1.38 ± 0.075
AAGATTTGTT | 0.978 ± 0.021
TGGGGAATCG | 1.01 ± 0.046
CATGACCTTT | 1.04 ± 0.016
ATTTTGGGAC | 1.03 ± 0.047
GGAACGTGAG | 1.011 ± 0.0011
GGCTTGGCGT | 0.98 ± 0.034
TTTGTGTCCG | 0.946 ± 0.088
AATTGATTTT | 1.01 ± 0.03
TCCATTTTGG | 0.998 ± 0.039
AAAGAATGGT | 0.991 ± 0.054
ATCAGATGAT | 1.0009 ± 0.00017
GGGTTCTTTG | 1.03 ± 0.064

Sequence | switch fluorescence ratio
TGAATGGGGC | 0.953 ± 0.042
TTATCAGCAC | 1.136 ± 0.0044
CTGTTGAGGG | 1 ± 0.027
ATATTAGAAC | 1.01 ± 0.0027
TAGGGGCGCG | 0.982 ± 0.078
TCAAAGCGGA | 1.01 ± 0.046
CAAAGCGCTG | 0.986 ± 0.012
AGAATTATTG | 0.9936 ± 0.0079
CTTGGTGGTG | 0.995 ± 0.019
TTCTGAAAAC | 1.0127 ± 0.00023
AAACTTAGC | 1.03 ± 0.065
CGAATATCAT | 0.9747 ± 0.0047
AATATGGGT | 1 ± 0.034
GGATGGGTGT | 1.02 ± 0.034
AAGTGGGTTC | 0.9824 ± 0.0052
CCAGCTTCTG | 1 ± 0.065
CTGAAGGAGG | 0.971 ± 0.037
CAGGTTGAAC | 0.9866 ± 0.0021
AATTCAATGA | 1.01 ± 0.045
AAGGGGAGGT | 1.02 ± 0.041
GGGAAGGGGC | 1.02 ± 0.018
TAATTTACTA | 1.04 ± 0.03
TAAGTTGTGT | 0.972 ± 0.036
CGGGGGGATG | 1.01 ± 0.033
GAGCTAGGAG | 1 ± 0.024

Sequence | switch fluorescence ratio
TTTCGGGACT | 1.03 ± 0.048
CTAAGGGGTG | 1.022 ± 0.0057
TTTGAGTGTT | 0.985 ± 0.011
TCTGAGTGCG | 1.02 ± 0.02
ATGGCGGATG | 1.01 ± 0.063
CTAGGCAGGG | 1.01 ± 0.005
CCCACTGGGA | 1.32 ± 0.39
ATATACTAGA | 1.03 ± 0.049
CAGAGGGTGC | 1.03 ± 0.017
GCTTGGGGGT | 0.987 ± 0.018
TGAATGAAGG | 1.01 ± 0.058
GTTAGATACG | 1 ± 0.028
GGTATTATAT | 0.98 ± 0.038
ACTTTGGACA | 1.038 ± 0.0052
GTGTTTGTTC | 0.968 ± 0.013
GATTGTCCTT | 0.9956 ± 0.0048
CAATTCATTA | 1.02 ± 0.02
CGTATTATGG | 0.998 ± 0.05
TTCTTTATCG | 1.02 ± 0.073
GGAGTCGTTT | 0.987 ± 0.027
AGCATAGCAT | 1.01 ± 0.019
TTATGGTTCG | 0.954 ± 0.013
GCTCGCCGAT | 1.01 ± 0.016
CGGCGGGCTG | 0.989 ± 0.062
CATCTATCCG | 0.963 ± 0.012
